{"source": "paper PMC8390433", "target": "Arc (Activity-regulated cytoskeleton-associated protein, Arg3.1) (UniProt Q9WV31)", "assay": "dynamic light scattering, 20°C and 30°C", "conditions": "reference: wild type Arc; sites T278"}
{"substance": "Arc (Activity-regulated cytoskeleton-associated protein, Arg3.1) (from UniProt Q9WV31) T278D", "values": [{"measurement": "other: DLS large-species diameter (share) at 30°C", "value": "stronger; reference 333.00± 68.4 (74%)"}]}
